Consider one molecule from patent publication US20120220015A1 (BIOLEX THERAPEUTICS, published 2012).

Assay in all cases: cell-based or functional assay
Test [1] has as its target Lemna-derived plasmin from transgenic line BAP01-B2-230 (derived from mature human plasminogen with the … (human, UniProt P00747 97-580)); P00747 581-810, Asn-289 of mature plasminogen (Asn-212 of plasmin) partly N-glycosylated).
The target in test [2] is Lemna-derived plasmin from transgenic line BAP12-B2-150 (aglycosylated plasmin derived from mature human … (human, UniProt P00747 97-580; P00747 581-810).
Test [3] deals with human reference plasmin (commercial, human-derived plasmin) (human).
Chain of human reference plasmin (commercial, human-derived plasmin) (human) (P00747 20-580, chain 1 of 2): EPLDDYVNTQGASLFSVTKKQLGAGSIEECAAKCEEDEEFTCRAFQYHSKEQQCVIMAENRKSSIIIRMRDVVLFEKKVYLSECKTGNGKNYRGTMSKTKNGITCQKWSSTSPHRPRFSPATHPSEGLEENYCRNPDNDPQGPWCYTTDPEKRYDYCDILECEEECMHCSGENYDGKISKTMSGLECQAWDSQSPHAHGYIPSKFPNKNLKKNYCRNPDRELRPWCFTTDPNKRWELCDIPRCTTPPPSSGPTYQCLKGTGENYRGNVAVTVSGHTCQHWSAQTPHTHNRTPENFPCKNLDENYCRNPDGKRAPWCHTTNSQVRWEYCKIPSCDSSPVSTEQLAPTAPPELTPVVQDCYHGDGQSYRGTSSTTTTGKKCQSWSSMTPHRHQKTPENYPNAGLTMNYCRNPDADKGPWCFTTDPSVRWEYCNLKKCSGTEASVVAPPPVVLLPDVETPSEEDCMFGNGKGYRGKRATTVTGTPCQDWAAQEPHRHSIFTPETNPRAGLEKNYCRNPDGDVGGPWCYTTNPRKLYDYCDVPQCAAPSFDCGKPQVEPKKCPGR
Chain of human reference plasmin (commercial, human-derived plasmin) (human) (P00747 581-810, chain 2 of 2): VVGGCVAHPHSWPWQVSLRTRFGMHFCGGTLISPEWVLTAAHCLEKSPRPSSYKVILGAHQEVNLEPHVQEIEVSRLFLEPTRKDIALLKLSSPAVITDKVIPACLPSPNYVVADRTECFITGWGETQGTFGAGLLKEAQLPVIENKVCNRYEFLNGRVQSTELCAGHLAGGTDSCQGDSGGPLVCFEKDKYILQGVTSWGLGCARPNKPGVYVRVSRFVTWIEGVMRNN

Chain of Lemna-derived plasmin from transgenic line BAP01-B2-230 (derived from mature human plasminogen with the … (P00747 97-580, form in doubt, chain 1 of 2): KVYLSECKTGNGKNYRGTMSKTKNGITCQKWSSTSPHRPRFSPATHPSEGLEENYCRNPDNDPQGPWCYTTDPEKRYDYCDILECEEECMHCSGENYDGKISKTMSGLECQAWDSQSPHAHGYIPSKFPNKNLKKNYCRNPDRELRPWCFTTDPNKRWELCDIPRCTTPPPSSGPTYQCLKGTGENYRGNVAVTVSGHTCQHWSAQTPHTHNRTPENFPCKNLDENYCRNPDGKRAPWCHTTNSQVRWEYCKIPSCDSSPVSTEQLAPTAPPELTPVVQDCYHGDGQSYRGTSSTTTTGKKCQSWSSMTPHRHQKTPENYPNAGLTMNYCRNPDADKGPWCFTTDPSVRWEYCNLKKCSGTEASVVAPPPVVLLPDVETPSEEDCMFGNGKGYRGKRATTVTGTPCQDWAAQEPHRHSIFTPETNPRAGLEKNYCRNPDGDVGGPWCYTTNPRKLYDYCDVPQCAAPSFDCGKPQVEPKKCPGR
Chain of Lemna-derived plasmin from transgenic line BAP01-B2-230 (derived from mature human plasminogen with the … (P00747 581-810 I701V, form in doubt, chain 2 of 2): as the sequence (P00747 581-810, chain 2 of 2) above, with I121V counted along it
Chain of Lemna-derived plasmin from transgenic line BAP12-B2-150 (aglycosylated plasmin derived from mature human … (P00747 97-580 N308D, form in doubt, chain 1 of 2): as the sequence (P00747 97-580, form in doubt, chain 1 of 2) above, with N212D counted along it
Chain of Lemna-derived plasmin from transgenic line BAP12-B2-150 (aglycosylated plasmin derived from mature human … (P00747 581-810 I701V, form in doubt, chain 2 of 2): as the sequence (P00747 581-810, chain 2 of 2) above, with I121V counted along it

B1: α2-antiplasmin (other, UniProt P08697 40-491, looked up)
chain: NQEQVSPLTLLKLGNQEPGGQTALKSPPGVCSRDPTPEQTHRLARAMMAFTADLFSLVAQTSTCPNLILSPLSVALALSHLALGAQNHTLQRLQQVLHAGSGPCLPHLLSRLCQDLGPGAFRLAARMYLQKGFPIKEDFLEQSEQLFGAKPVSLTGKQEDDLANINQWVKEATEGKIQEFLSGLPEDTVLLLLNAIHFQGFWRNKFDPSLTQRDSFHLDEQFTVPVEMMQARTYPLRWFLLEQPEIQVAHFPFKNNMSFVVLVPTHFEWNVSQVLANLSWDTLHPPLVWERPTKVRLPKLYLKHQMDLVATLSQLGLQELFQAPDLRGISEQSLVVSGVQHQSTLELSEVGVEAAAATSIAMSRMSLSSFSVNRPFLFFIFEDTTGLPLFVGSVRNPNPSAPRELKEQQDSPGNKDFLQSLKGFPRGDKLFGPDLKLVPPMEEDYPQFGSPK
B1: the “percent of plasmin inhibited, no pre-incubation with α2-AP, molar ratio of 1:1 (S-2403 chromogenic assay)” value in test [1] is 60%; in test [2], 60%; in test [3], around 90%.
